The source of these data is US12428627B2, “Mutant p-hydroxyphenylpyruvate dioxygenase, and coding nucleic acid and use thereof” (Qingdao Kingagroot Chemical Compound Co., Ltd., priority 2018, dated 2025).

The subject of one series is rice HPPD (OsHPPD). As to the kind of experiment: Color reaction of recombinant E. coli expressing wild-type or mutant rice HPPD, cultured in 96-well plate in medium containing an HPPD-inhibiting herbicide and tyrosine. To be noted: for resistance ranking in color reaction: compound 101. It counts as cell-based, Oryza sativa. Set-up: key to relative resistance to Tembotrione / relative resistance to Benzuofucaotong metabolic product / relative resistance to Huanbifucaotong / relative resistance to Topramezone / relative resistance to Mesotrione / resistance to Tembotrione / resistance to Benzucfucaotong metabolic product / resistance to Huanbifucaotong / resistance to Topramezone / resistance to Mesotrione: The more the plus sign “+”, the deeper the color and the higher the resistance/tolerance as compared to the wild type. The text has this:
The rice full-length OsHPPD enzyme has 446 amino acids and its amino acid sequence is set forth in SEQ ID NO: 2, wherein the amino acids 1-50 are considered to constitute a signal peptide which is responsible for directing into chloroplast (Siehl et al. Plant Physiol. 2014 November; 166(3): 1162-1176). Therefore, from the amino acid at the 51-position to the amino acid at the […], a saturated random mutation was made for each amino acid. This was achieved by performing a bridge PCR by using a primer containing a coding sequence of an amino acid to be mutated into NNK and another suitable conventional primer. In NNK, N represented A/T/G/C and K represented G/T, and the NNK codon could encode any one of 20 amino acids or terminators. Accordingly, this was a saturated mutation. Please see: Kille S. Acevedo-Rocha C G, Parra L P, Zhang Z G, Opperman D J, Reetz M T, Acevedo J P (2013) Reducing codon redundancy and screening effort of combinatorial protein libraries created by saturation mutagenesis. ACS Synth Biol 2(2):83-92; Directed Evolution Library Creation: methods and protocols 2nd ed. Edited by Elizabeth M. J. Gillam, Janine N. Copp and David F. Ackerley New York, NY United States: Springer, 2014. doi:10.1007/978-1-4939-1053-3. A large number of mutants would be produced. The mutant was cloned into a linearized pET-44a vector and transformed into E. co/i, which was cultivated by using a 96-well plate in a 2×YT culture solution containing an HPPD-inhibiting herbicide (such as 1-2 μM tembotrione) and a substrate tyrosine (1 g/L) in a shaker at 28° C. and 150 rpm for 24 hours for expression, and then the mutants were rapidly screened out according to their color browning. By using the method, 10 single amino acid mutants, A103S, H141R, H141 K, H141T, A165V, V191I, R220K, G342D, D370N and K410I, were screened out. The color reaction of these resistant mutants in the presence of tembotrione and the metabolic product of benzuofucaotong relative to that of the wild type was as shown in FIG. 1.
Similarly, the color reaction of these mutants in the presence of the other three HPPD-inhibiting herbicides huanbifucaotong, topramezone and mesotrione were determined, see FIGS. 2 and 3. The resistance/tolerance of each of the mutants to the five herbicides was roughly estimated on the basis of color changes thereof and the results were shown in Table 1. The more the plus sign “+”, the deeper the color and the higher the resistance/tolerance as compared to the wild type.
HPPD-inhibiting herbicides inhibited HPPD enzymatic activity. When tyrosine was converted to 4-hydroxyphenylpyruvate (HPP) under the action of tyrosine transaminase, the inactivated HPPD was unable to oxidize 4-hydroxyphenylpyruvate into homogentisic acid (HGA). HGA was dark brown. Therefore, if an HPPD mutant was resistant to or tolerant to an herbicide, after expressed in E. coli, the mutant could also oxidize 4-hydroxyphenylpyruvate into homogentisic acid, whereby dark brown appeared. Therefore, E. coli was cultured in a 2×YT culture medium containing a HPPD-inhibiting herbicide and a substrate tyrosine using a 96-well plate to express HPPD, and these mutants were rapidly screened according to their color changes. • (1) Preparation of 2×YT culture medium (1 g/L L-Tyr, 0.1 mM IPTG, 0.01 mM MnCl2 and 100 mg/L ampicillin were added). • (2) 0.1 mL of the above medium was added to each well of a 96-well plate, and the expression clones of OsHPPD wild type or mutant (OsHPPD Mut) from the E. coli plate obtained by the above transformation were subjected to liquid culture in the 96-well plate. HPPD inhibitors having a final concentration of 1 μM-20 μM were added according to different selected agents, for example, the final concentration of tembotrione was 1.7 μM while mesotrione was 10 μM. […]

For another series, the system named is OsHPPD. The series is described as follows: HPPD enzyme activity assay: Km, Kcat and Kcat/Km of OsHPPDs. It counts as biochemical, Oryza sativa. To be noted: for Km: substrate 4-HPP. The method, then:
The rice OsHPPD protein and homogentisate 1,2-dioxygenase (HGD) were obtained by heterologously expressed in E. coli wherein the gene was inserted into the pET 15b expression vector and expressed in the BL21 (DE3) expression strain, and purified by the Ni-NTA resin. • (1) The HPPD open reading frame (ORF) of the positive clone was cloned into the pET-15b vector to form a 6His-HPPD expression vector, and transformed into the BL21 (DE3) cell. The expression strain was inoculated in 10 mL of 2×YT culture medium, and cultivated overnight on a shaker at 37° C. and 200 rpm. The 10 mL of the culture was inoculated in 1 L of 2×YT culture medium and cultivated until the OD600 reached 0.6-0.8, cooled to a temperature of 16° C., and subjected to induced-expression with 0.2 mM IPTG (isopropyl thiogalactoside) overnight. The strains were collected by centrifugation at 2800×g. • (2) The collected strains were re-suspended with the buffer A (50 mM Tris pH 8.0, 500 mM NaCl, 20 mM imidazole), to which PMSF (phenylmethanesulfonyl fluoride) at the final concentration of 1 mM and 250 μL of a protease inhibitor cocktail (i.e., a mixture of multiple protease inhibitors), and mixed. The cells were broken by ultrasound in ice-bath (40% total power, work for 3 seconds/6 seconds interval, 2×30 minutes (Ningbo Scientz Biotechnology Co., Ltd., Ningbo, China)), and centrifuged at 12000 rpm at 4° C. for 30 minutes; and the supernatant was filtered with a 0.22 μm filter membrane. • (3) Purification with the Ni-NTA column: the supernatant was in contact with the Ni-NTA resin, then rinsed with a buffer A containing 50 mM imidazole to remove the impurities, and finally, eluted with an elution buffer containing 400 mM imidazole. • (4) The approximate purity of the protein of interest was analyzed by SDS-PAGE. The eluates containing of the protein of interest were combined and concentrated by an ultrafiltration device (10 kDa molecular weight cut-off, Amicon Ultra). The solution was replaced with a solution containing 20 mM Tris-HCl and having a pH of 7.5 for at least 3 times to desalt. The total protein concentration was determined by the BCA method.
(§1) • 1. The activity of a HPPD enzyme was determined by detecting the conversion of 4-hydroxyphenylpyruvate (4-HPP) to homogentisic acid (HGA) catalyzed by the HPPD enzyme and the conversion of HGA to maleylacetoacetate (MAA) catalyzed by homogentisate dioxygenase. […] 6 μl of 4-hydroxyphenylpyruvate (4-HPP) having a concentration that was as 50 times as the final concentration of the substrate were added to an ELSA plate, and then 294 μL of hydroxyethylpiperazine ethanesulfonic acid (HEPES) with a final concentration of 25 mM and pH of 7, 2 mM of Vitamin C, 10 mM FeSO4, 50 nM homogentisate dioxygenase and 5 to 240 nM HPPD enzyme were added thereto at one time. The final concentration of reaction substrate 4-HPP usually ranged from 1 to 100 μM. • 3. The absorbance changes of the reaction wells at 318 nm were continuously monitored by a UV ELISA detector (ReadMax 1900 photoabsorption type full-wavelength microplate reader) (Shanghai). • 4. Determination of Km, Kcat and Kcat/Km of OsHPPDs
Vmax is the maximum catalytic reaction rate achievable by enzymatic catalysis. The Michaelis constant Km is the concentration of a substrate required when the enzyme catalyzed the reaction to achieve half of the maximum rate (Vmax). The Km value is a constant and independent of the enzyme concentration, and altered as substrate type, reaction temperature, pH, and ionic strength changed. […] is a catalytic constant of an enzyme and referred to the number of substrate molecules that could be catalyzed by an enzyme molecule or enzyme active center per second. KCat/Km represents the catalytic efficiency of enzyme. It could be seen from the data in the table that the catalytic efficiency of most HPPD mutants was enhanced.

Another series relates to OsHPPD proteins. The series is described as follows: Inhibitory activity (IC50) of the herbicide 101 and huanbifucaotong against OsHPPD proteins. It counts as biochemical, Oryza sativa. To be noted: herbicides 101 and huanbifucaotong. How it is done: as §1
• 5. Determination of inhibitory activity (IC50) of the herbicide 101 and huanbifucaotong against OsHPPD proteins
Due to the unique properties of each of 101 and huangbifucaotong, the degree of the increased IC50 value is not completely consistent for the two HPPD herbicides.

Numbering of substitutions follows the chain as printed. Numbers in names are those of the source.

B1: G342D: single-site mutant rice HPPD (protein, listed as Oryza sativa)
chain: MPPTPTPTATTGAVSAAAAAGENAGFRLVGHRRFVRANPRSDRFQALAFHHVELWCADAASAAGRFAFALGAPLAARSDLSTGNSAHASLLLRSASVAFLFTAPYGGDHGVGADAATTASIPSFSPGAARRFAADHGLAVHAVALRVADAADAFRASVAAGARPAFQPADLGGGFGLAEVELYGDVVLRFVSHPDGADAPFLPGFEGVSNPGAVDYGLRRFDHVVGNVPELAPVAAYISGFTGFHEFAEFTAEDVGTAESGLNSVVLANNAETVLLPLNEPVHGTKRRSQIQTYLDHHGGPGVQHIALASDDVLGTLREMRARSAMGGFEFLAPPPPNYYDDVRRRAGDVLSEEQINECQELGVLVDRDDQGVLLQIFTKPVGDRPTFFLEMIQRIGCMEKDESGQEYQKGGCGGFGKGNFSELFKSIEEYEKSLEAKQAPTVQGS
modifications: The amino acid sequence of Wild-Type rice HPPD protein (OsHPPD _WT)
As for B1, in the series with rice HPPD (OsHPPD) (tembotrione and metabolic product of benzuofucaotong, FIG. 1), the “color change compared with wild type” value was “obviously deeper than that of the wild type”.

B2: H141R/G342D/K418P: mutant rice HPPD (protein)
chain: B1 chain with H141R, K418P
On to B2, for which the Km in the series with OsHPPD came out at 30.6 µM.

B3: H141R/N338D/G342D: mutant rice HPPD (protein)
chain: B1 chain with H141R, N338D
As for B3, in the series on OsHPPD, the “affinity to substrate (Km)” value is reported as “not reduced” and the Michaelis constant (Km) was determined as 6.3 µM. In the series on OsHPPD proteins, the “resistance in in vitro enzyme activity experiments” value is “relatively high resistance”.

B4: H141R/N338D/G342D/R346C: mutant rice HPPD (protein)
chain: B1 chain with H141R, N338D, R346C
Regarding B4, the Km in the series on OsHPPD was determined as 7.4 µM.

B5: G342D/R346C: mutant rice HPPD (protein, listed as Oryza sativa)
chain: B1 chain with R346C
modifications: The amino acid sequence of Wild-Type rice HPPD protein (OsHPPD _WT)
B5: the Km with OsHPPD was found to be 5.9 µM.

B6: H141R/N338D/N420S: mutant rice HPPD (protein)
chain: B1 chain with H141R, N338D, D342G, N420S
On to B6, for which the Km in the series on OsHPPD was determined as 5.1 µM.

B7: H141R/G342D/G419F: mutant rice HPPD (protein)
chain: B1 chain with H141R, G419F
With B7, in the series with OsHPPD, the Km is 7.9 µM.

B8: 103: single-site mutant rice HPPD, A103S (protein)
chain: B1 chain with A57S, A103S, D342G
modifications: The amino acid sequence of rice HPPD mutant (OsHPPD_A103S)
notes: single-site mutant rice HPPD, A103S
For B8, the “relative resistance to Huanbifucaotong” value with rice HPPD (OsHPPD) (Table 1, single-site mutants, estimated from color change, wild type = +) is listed as “+”.

B9: N338D/G342D: mutant rice HPPD (protein)
chain: B1 chain with N338D
As to B9, in the series with OsHPPD, the Michaelis-Menten constant (Km) worked out at 2.1 µM.

B10: H141R/N338D/G342D/K418P/G419F/N420S: mutant rice HPPD (protein)
chain: B1 chain with H141R, N338D, K418P, G419F, N420S
B10: the Km in the series with OsHPPD was determined as 23 µM.

B11: N338S/G342D/R346C (protein)
chain: B1 chain with N338S, R346C
For B11, in the series on rice HPPD (OsHPPD), the “resistance ranking in color reaction” value is reported as “highest resistance”.

B12: H141R/N338D/G342D/R346H: mutant rice HPPD (protein)
chain: B1 chain with H141R, N338D, R346H
In the case of B12, the Michaelis-Menten constant (Km) with OsHPPD amounted to 7.6 µM.

B13: N338D/G342D/R346C: mutant rice HPPD (protein, listed as Oryza sativa)
chain: B1 chain with N338D, R346C
modifications: The amino acid sequence of Wild-Type rice HPPD protein (OsHPPD _WT)
On to B13, for which the Km in the series on OsHPPD was 9.5 µM. Besides, the “resistance ranking in color reaction” value in the series on rice HPPD (OsHPPD) was “highest resistance”.
